Assay results published in PMC2141641 (The Journal of Cell Biology, 1997).

B1: GST-CD36 fusion protein FP93-120 (domain or fragment, human, UniProt P16671 93-120, looked up)
chain: YRVRFLAKENVTQDAEDNTVSFLQPNGA
B2: GST-CD36 fusion protein FP67-157 (domain or fragment, human, UniProt P16671 67-157, looked up)
chain: IFDVQNPQEVMMNSSNIQVKQRGPYTYRVRFLAKENVTQDAEDNTVSFLQPNGAIFEPSLSVGTEADNFTVLNLAVAAASHIYQNQFVQMI
B3: TSP-1 peptide Mal III (peptide)
peptide: SPWDIASVTAGGGVQKRSK
B4: TSP-1 peptide Col overlap (peptide)
peptide: NGVQYRN

Columns and labels:
Assay in all cases: radioligand binding
[1] = molecular target: Thrombospondin-1 (human, UniProt P07996 19-1170, 125I label (radiolabeled TSP-1) in the binding assays)
[2] = molecular target: B1
[3] = molecular target: CD36 expressed on Bowes melanoma cells stably transfected with human CD36 cDNA (human, UniProt P16671 1-472)
Sequence of CD36 expressed on Bowes melanoma cells stably transfected with human CD36 cDNA (P16671 whole entry): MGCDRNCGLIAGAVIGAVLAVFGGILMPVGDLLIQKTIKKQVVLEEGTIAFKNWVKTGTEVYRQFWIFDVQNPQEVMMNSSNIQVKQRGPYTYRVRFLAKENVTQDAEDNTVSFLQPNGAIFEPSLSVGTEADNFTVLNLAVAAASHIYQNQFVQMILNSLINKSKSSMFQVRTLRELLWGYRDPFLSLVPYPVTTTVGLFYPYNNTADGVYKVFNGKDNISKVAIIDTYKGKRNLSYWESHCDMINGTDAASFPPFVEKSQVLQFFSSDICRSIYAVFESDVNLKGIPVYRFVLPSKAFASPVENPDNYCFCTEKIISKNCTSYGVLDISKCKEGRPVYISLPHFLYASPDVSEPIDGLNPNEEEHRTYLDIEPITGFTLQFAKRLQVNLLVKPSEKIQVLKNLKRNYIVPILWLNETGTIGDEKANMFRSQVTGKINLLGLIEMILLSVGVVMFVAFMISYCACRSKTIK

Sequence of Thrombospondin-1 (P07996 19-1170): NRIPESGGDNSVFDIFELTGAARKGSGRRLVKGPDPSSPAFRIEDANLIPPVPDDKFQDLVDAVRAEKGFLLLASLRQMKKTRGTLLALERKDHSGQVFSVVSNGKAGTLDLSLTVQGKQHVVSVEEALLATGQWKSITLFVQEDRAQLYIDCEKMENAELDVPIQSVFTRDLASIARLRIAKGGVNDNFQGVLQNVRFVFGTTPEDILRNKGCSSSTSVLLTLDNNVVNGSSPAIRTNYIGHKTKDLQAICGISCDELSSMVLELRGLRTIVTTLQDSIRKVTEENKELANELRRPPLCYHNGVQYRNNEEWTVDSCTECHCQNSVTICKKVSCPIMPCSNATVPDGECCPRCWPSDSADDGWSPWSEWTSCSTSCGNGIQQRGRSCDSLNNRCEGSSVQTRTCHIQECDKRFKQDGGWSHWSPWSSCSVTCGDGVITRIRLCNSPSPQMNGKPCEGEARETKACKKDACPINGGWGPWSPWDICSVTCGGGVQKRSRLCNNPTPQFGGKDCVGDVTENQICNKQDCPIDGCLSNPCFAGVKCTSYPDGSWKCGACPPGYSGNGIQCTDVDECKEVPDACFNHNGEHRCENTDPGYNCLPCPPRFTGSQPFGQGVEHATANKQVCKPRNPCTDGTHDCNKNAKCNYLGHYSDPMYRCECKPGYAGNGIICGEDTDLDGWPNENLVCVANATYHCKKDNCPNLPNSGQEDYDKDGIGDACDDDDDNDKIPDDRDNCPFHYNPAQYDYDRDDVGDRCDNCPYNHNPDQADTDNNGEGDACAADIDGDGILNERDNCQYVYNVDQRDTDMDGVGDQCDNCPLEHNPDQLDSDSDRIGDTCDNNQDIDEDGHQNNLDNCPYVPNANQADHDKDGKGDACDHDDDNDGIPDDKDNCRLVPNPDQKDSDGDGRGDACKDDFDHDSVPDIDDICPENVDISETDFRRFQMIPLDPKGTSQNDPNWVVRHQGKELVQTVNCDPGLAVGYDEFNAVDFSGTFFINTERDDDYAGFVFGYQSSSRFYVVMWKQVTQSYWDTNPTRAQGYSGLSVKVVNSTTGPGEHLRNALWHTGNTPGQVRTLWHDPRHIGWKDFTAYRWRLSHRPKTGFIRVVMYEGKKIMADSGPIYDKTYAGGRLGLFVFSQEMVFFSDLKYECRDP

Binder: B1
- binding result [1]: binds

Binder: B2
- binding result [1]: binds

Binder: B3
- binding result [2]: binds
- IC50 [3]: 8.6 ± 1.12 µM

Binder: B4
- IC50 [3]: 30.1 ± 8.88 µM
